Measured values as given in article PMC10940649, “Structural insights into human organic cation transporter 1 transport and inhibition” (Cell Discovery, 2024).

Target: T1, human organic cation transporter 1 (hOCT1) (Homo sapiens, UniProt O15245)
T1 construct: human organic cation transporter 1 (SLC22A1), full-length, wild-type construct used for cryo-EM structure determination; A 3C protease cleavage site stands between hOCT1 and GFPuv-His6; The FSEC-TS assay used hOCT1-GFP; also called SLC22A1; hOCT1-GFP; source: Sf9 insect cells (baculovirus), purified (Ni-NTA, protein C column, SEC) in DDM or LMNG micelles
Assay: SEC; Nb56 with hOCT1; co-migration on size exclusion chromatography
Conditions: both partners purified

T1 sequence (O15245 whole entry): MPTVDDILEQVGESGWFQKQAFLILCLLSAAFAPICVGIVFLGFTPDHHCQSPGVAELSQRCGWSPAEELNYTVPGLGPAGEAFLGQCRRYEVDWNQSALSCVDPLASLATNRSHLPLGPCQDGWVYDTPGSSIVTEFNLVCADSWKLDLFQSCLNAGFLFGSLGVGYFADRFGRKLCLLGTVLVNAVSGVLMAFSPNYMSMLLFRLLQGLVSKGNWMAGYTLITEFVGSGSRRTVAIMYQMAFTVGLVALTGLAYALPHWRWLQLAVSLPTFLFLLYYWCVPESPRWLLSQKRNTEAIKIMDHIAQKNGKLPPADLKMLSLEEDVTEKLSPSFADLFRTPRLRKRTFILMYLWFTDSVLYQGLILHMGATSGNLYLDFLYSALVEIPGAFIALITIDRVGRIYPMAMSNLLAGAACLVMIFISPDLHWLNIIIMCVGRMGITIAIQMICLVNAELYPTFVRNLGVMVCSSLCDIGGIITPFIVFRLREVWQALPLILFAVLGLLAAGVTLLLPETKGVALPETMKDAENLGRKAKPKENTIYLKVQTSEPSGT

- binding result: binds
B1: Nb56 (VHH)
VHH: QVQLQESGGGLVQAGGSLRLSCAASGTIFYYEIMGWYRQAPGKEREFVATIDQGGITNYADSVKGRFTISRDNAKNTVYLQMNSLKPEDTAVYYCAVPDVFVGRGWDYLIYWGQGTQVTVSS
notes: Nanobody selected from a synthetic yeast display library with hOCT1 in LMNG as bait; Nb56 was modelled in the deposited hOCT1-Nb5660 structures (hOCT1-apo1, -apo2, -apo3); source: E. coli BL21 (DE3), pET26b, purified (Ni-NTA, SEC)
